This note sets out measurements from patent publication US20190064149A1, “CANCER EXAMINATION METHOD AND EXAMINATION KIT” (THE UNIVERSITY OF TOKYO, priority 2013, published 2019).

“Also recorded” adds a separate entry of the source.

Common to all, as to assay type: cell-based, human
Assay [1] concerns A431 cells. Put plainly: Migration activity of EGF-stimulated cells in a transwell chamber. As to conditions: EGF-stimulated MT1-MMP knockdown cells. An excerpt: No RhoG activity was detected from the cells not treated with EGF (A). […] Similar results were found in the SCC61 cells (C).
The test system of the next assay is RhoG. As to the kind of experiment: RhoG activity pull-down with ELMO2/GST beads in MT1-MMP knockdown A431 cells. To be noted: MT1-MMP knockdown A431 cells after EGF stimulation. An excerpt: By using A431 cells whose MT1-MMP expression was knocked down by siRNA, an influence of Ephrin-A1-dependent EphA2 on an RhoG signaling downstream of the EGF receptor was studied.
A fusion protein of ELMO2 and GST, each serving as an effector of RhoG, was solid phased on glutathione beads and the RhoG activity in a cell suspension solubilized with RIPA was detected by pull-down using ELMO2/GST beads as a bait. Co-precipitated RhoG was detected using an anti-RhoG polyclonal antibody (Santa Cruz) and the RhoG activity was quantified by densitometry with Image J. An expression vector of ELMO2 was kindly given by Chihiro Sasakawa, professor of Division of Bacterial Infection, Medical Institute of Science, The University of Tokyo.

Assay [2] has as its system A431 cells. Put plainly: Cell growth assay, three-dimensional collagen gel culture and spheroid formation. As to conditions: three-dimensional culture in collagen gel and anchorage-independent spheroid formation. The procedure:
Collagen I gel (3 mg/ml, Nitta Gelatin) extracted in acetic acid, a neutralization buffer (50 mM NaOH, 260 mM NaHCO3, 200 mM HEPES), and each of the two types of cells were mixed and the resulting mixture was seeded to satisfy 2.5×10^4/250 μl/48 well plate. After completion of the polymerization of the collagen gel, they were cultured for 7 days in 400 μl/well of a DMEM/1% FCS culture solution. After culturing, the collagen gel was dissolved with 0.1% collagenase. The cells were treated with trypsin to dissociate them into single cells and the number of the cells was counted using a Coulter counter.
The two types of the cells were each detached with trypsin from one another and the number of the cells was counted by a hemocytometer. They were seeded in a low adhesion plate (PrimeSurface (registered trademark), Sumitomo Bakelite) of each cell protein (100 cells/100 μl/96 well plate) and cultured for 7 days in a DMEM/1% FCS culture solution. The number of spheroid formation cells was obtained from their volume (½×long diameter×(short diameter)^2).

B1: Ephrin-A1: typical ligand of EphA2 (protein)
chain: DRHTVFWNSSNPKFRNEDYTIHVQLNDYVDIICPHYEDHSVADAAMEQYILYLVEHEEYQLCQPQSKDQVRWQCNRPSAKHGPEKLSEKFQRFTPFTLGKEFKEGHSYYYISKPIHQHEDRCLRLKVTVSGKITHSPQAHDNPQEKRLAADDPEVRVLHSIGHS
Take B1: the cell migration result in the assay with A431 cells [1] is reported as “significantly suppressed”. In the assay with RhoG, the RhoG activity result is on record as “significant decrease; also recorded: significantly reduced”. In the assay on A431 cells [2], the “growth of MT1-MMP knockdown cells” value is reported as “significantly suppressed”.
